# Results taken from patent US20240092919A1 (Ablynx, published 2024).
# T1: Human T cell receptor on human primary T cells (human, UniProt P01848 1-140; P01850 1-176)
# T1 TCR alpha (looked up): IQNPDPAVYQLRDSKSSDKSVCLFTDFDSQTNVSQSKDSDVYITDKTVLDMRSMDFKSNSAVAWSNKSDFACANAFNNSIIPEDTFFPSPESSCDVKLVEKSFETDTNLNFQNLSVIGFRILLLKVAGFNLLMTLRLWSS
# T1 TCR beta (looked up): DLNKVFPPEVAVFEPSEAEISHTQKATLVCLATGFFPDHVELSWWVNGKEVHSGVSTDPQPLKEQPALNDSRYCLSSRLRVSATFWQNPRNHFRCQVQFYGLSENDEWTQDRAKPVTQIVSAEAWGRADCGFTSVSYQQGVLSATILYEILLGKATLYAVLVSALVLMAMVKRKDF
# T2: Cynomolgus TCR(AEA41865/AEA41866)-zipper protein (cynomolgus monkey)
# T2 construct: also called cyTCR-zipper protein; cynoTCR zipper
# T2 TCR alpha: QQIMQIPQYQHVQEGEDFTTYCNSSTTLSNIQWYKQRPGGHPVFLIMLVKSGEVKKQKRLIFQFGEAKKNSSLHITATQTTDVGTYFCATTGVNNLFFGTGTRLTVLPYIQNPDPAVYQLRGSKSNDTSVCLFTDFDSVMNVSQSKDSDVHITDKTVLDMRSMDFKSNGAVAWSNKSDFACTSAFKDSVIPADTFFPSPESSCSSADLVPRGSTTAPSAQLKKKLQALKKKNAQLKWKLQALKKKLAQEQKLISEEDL
# T2 TCR beta: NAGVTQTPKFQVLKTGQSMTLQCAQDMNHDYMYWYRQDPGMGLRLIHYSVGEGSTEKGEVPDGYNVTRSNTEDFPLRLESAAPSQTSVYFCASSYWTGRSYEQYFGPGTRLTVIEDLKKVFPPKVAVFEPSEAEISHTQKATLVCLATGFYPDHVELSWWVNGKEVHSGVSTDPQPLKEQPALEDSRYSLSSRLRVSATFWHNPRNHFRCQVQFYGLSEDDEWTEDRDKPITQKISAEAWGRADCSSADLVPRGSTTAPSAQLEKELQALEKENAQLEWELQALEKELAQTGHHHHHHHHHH
# Target: T1, Human T cell receptor on human primary …
# Assay: cell-based or functional assay
# Throughout, for % Lysis, T cell mediated MOLM-13 cell killing, human primary T cells, E:T 10:1: test concentration or dose not given here.
Binder,"% Lysis, T cell mediated MOLM-13 cell killing, human primary T cells, E:T 10:1 [%]","EC50 (M), T cell mediated MOLM-13 cell killing, human primary T cells, E:T 10:1 [M]"
T017000628 (bispecific antibody) DVQLVESGGGVVQPGGSLRLSCVASYDVHKINFYGWYRQAPGKEREKVAHISIGDQTDYADSAKGRFTISRDESKNTVYLQMNSLRPEDTALYYCRALSKIWPYDYWGQGTLVTVSSGGGGSGGGGSGGGGSGGGGSGGGGSGGGGSGGGGSEVQLVESGGGLVQAGGSLRLSCAASGITSKINDMGWYRQTPGNYREWVASITATGTTNYRDSVKGRFTISRDNAKSTVYLQMNSLKPEDTTVYYCNTFPPISNFWGQGTLVTVSSA,39,1.6e-10

# Target: T2, Cynomolgus …
# Assay: SPR ProteOn off-rate screen
row,koff [s⁻¹],Binder
1,0.00701,"T017000163 (VHH, also called T017000745) VHH: EVQLVESGGGVVQPGGSLRLSCVASGDVHQINFLGWYRQAPGKEREKVAHISIGDQTDYADSAKGRFTISRDESKNMVYLQMNSLRPEDTALYFCRAFSRIYPYDYWGQGTLVTVSS"

# Target: T2, Cynomolgus …
# Assay: SPR ProteOn off-rate screen
# Remark: another data set of the same source
# Text: (§1) Unique ISVD clones, i.e. clones with a unique sequence, were subsequently selected and screened to determine their off-rate. To this purpose, the ISVD containing periplasmic extracts were screened on huTCR-zipper and cyTCR-zipper protein by SPR on a ProteOn XPR36 instrument. The zipper proteins were immobilized on a GLC sensor chip (between 4300 and 5100RU) via amine coupling chemistry, using EDC/sulfo-NHS for activation of the carboxyl groups on the chip surface (running buffer: HBS-EP+, pH7.4). Periplasmic extracts were injected at 1/10 dilution for 2 min (at a flow rate of 45 μL/min) and dissociation was followed for 900 s. A pulse of 100 s of 3 M MgCl2 at 45 μL/min was used for regeneration. […] Processed sensorgrams were fitted with the Langmuir model (1:1 interaction) using ProteOn Manager 3.1.0 (Version 3.1.0.6) software.
row,koff [s⁻¹],Binder
1,0.00624,T017000161 (VHH) VHH: EVQLVESGGGVVQPGGSLRLSCVASGEVHKINFLGWYRQAPGKEREKVAHISIGDQTDYADSAKGRFTISRDESKNMVYLQMNSLRPEDTALYFCRAFSRIYPYDYWGQGTLVTVSS
2,0.00325,T017000177 (VHH) VHH: EVQLVESGGGVVQPGGSLRLSCVASGSVHKINFLGWYRQAPGKEREKVAHISIGDQTDYADSAKGRFTISRDESKNMVYLQMNSLRPEDTALYFCRAFSRIYPYDYWGQGTLVTVSS
3,0.00998,T017000180 (VHH) VHH: EVQLVESGGGVVQPGGSLRLSCVASQDVHKINFLGWYRQAPGKEREKVAHISIGDQTDYADSAKGRFTISRDESKNMVYLQMNSLRPEDTALYFCRAFSRIYPYDYWGQGTLVTVSS
4,0.00419,T017000196 (VHH) VHH: EVQLVESGGGVVQPGGSLRLSCVASGDVHKIFFLGWYRQAPGKEREKVAHISIGDQTDYADSAKGRFTISRDESKNMVYLQMNSLRPEDTALYFCRAFSRIYPYDYWGQGTLVTVSS
5,0.00903,T017000173 (VHH) VHH: EVQLVESGGGVVQPGGSLRLSCVASGDVHKINVLGWYRQAPGKEREKVAHISIGDQTDYADSAKGRFTISRDESKNMVYLQMNSLRPEDTALYFCRAFSRIYPYDYWGQGTLVTVSS
6,0.0114,T017000185 (VHH) VHH: EVQLVESGGGVVQPGGSLRLSCVASGDVHKINFFGWYRQAPGKEREKVAHISIGDQTDYADSAKGRFTISRDESKNMVYLQMNSLRPEDTALYFCRAFSRIYPYDYWGQGTLVTVSS
7,0.0147,T017000208 (VHH) VHH: EVQLVESGGGVVQPGGSLRLSCVASYDVHKINFLGWYRQAPGKEREKVAHISIGDQTDYADSAKGRFTISRDESKNMVYLQMNSLRPEDTALYFCRAFSRIYPYDYWGQGTLVTVSS
8,0.00389,T017000188 (VHH) VHH: EVQLVESGGGVVQPGGSLRLSCVASGAVHKINFLGWYRQAPGKEREKVAHISIGDQTDYADSAKGRFTISRDESKNMVYLQMNSLRPEDTALYFCRAFSRIYPYDYWGQGTLVTVSS
9,0.00825,T017000166 (VHH) VHH: EVQLVESGGGVVQPGGSLRLSCVASGDVHKINFYGWYRQAPGKEREKVAHISIGDQTDYADSAKGRFTISRDESKNMVYLQMNSLRPEDTALYFCRAFSRIYPYDYWGQGTLVTVSS
10,0.00775,T017000179 (VHH) VHH: EVQLVESGGGVVQPGGSLRLSCVASGDVHKINFLTWYRQAPGKEREKVAHISIGDQTDYADSAKGRFTISRDESKNMVYLQMNSLRPEDTALYFCRAFSRIYPYDYWGQGTLVTVSS
11,0.00642,"T017000163 (VHH, also called T017000745) VHH: EVQLVESGGGVVQPGGSLRLSCVASGDVHQINFLGWYRQAPGKEREKVAHISIGDQTDYADSAKGRFTISRDESKNMVYLQMNSLRPEDTALYFCRAFSRIYPYDYWGQGTLVTVSS"
12,0.00791,T017000174 (VHH) VHH: EVQLVESGGGVVQPGGSLRLSCVASWDVHKINFLGWYRQAPGKEREKVAHISIGDQTDYADSAKGRFTISRDESKNMVYLQMNSLRPEDTALYFCRAFSRIYPYDYWGQGTLVTVSS
13,0.0107,T017000190 (VHH) VHH: EVQLVESGGGVVQPGGSLRLSCVASGDVHKINFLSWYRQAPGKEREKVAHISIGDQTDYADSAKGRFTISRDESKNMVYLQMNSLRPEDTALYFCRAFSRIYPYDYWGQGTLVTVSS
14,0.00806,T017000170 (VHH) VHH: EVQLVESGGGVVQPGGSLRLSCVASGDVHKINYLGWYRQAPGKEREKVAHISIGDQTDYADSAKGRFTISRDESKNMVYLQMNSLRPEDTALYFCRAFSRIYPYDYWGQGTLVTVSS
15,0.00412,T017000164 (VHH) VHH: EVQLVESGGGVVQPGGSLRLSCVASGYVHKINFLGWYRQAPGKEREKVAHISIGDQTDYADSAKGRFTISRDESKNMVYLQMNSLRPEDTALYFCRAFSRIYPYDYWGQGTLVTVSS
16,0.00791,T017000176 (VHH) VHH: EVQLVESGGGVVQPGGSLRLSCVASGDVHKLNFLGWYRQAPGKEREKVAHISIGDQTDYADSAKGRFTISRDESKNMVYLQMNSLRPEDTALYFCRAFSRIYPYDYWGQGTLVTVSS
17,0.058,T017000200 (VHH) VHH: EVQLVESGGGVVQPGGSLRLSCVASGDVHKINFLRWYRQAPGKEREKVAHISIGDQTDYADSAKGRFTISRDESKNMVYLQMNSLRPEDTALYFCRAFSRIYPYDYWGQGTLVTVSS

# Target: Cynomolgus T cell receptor on cynomolgus primary T cells (cynomolgus monkey); for % Lysis, T cell mediated MOLM-13 cell killing, cynomolgus primary T cells, E:T 10:1: test concentration or dose not given here
# Assay: cell-based or functional assay
Binder,"% Lysis, T cell mediated MOLM-13 cell killing, cynomolgus primary T cells, E:T 10:1 [%]","EC50 (M), T cell mediated MOLM-13 cell killing, cynomolgus primary T cells, E:T 10:1 [M]"
T017000628 (bispecific antibody) DVQLVESGGGVVQPGGSLRLSCVASYDVHKINFYGWYRQAPGKEREKVAHISIGDQTDYADSAKGRFTISRDESKNTVYLQMNSLRPEDTALYYCRALSKIWPYDYWGQGTLVTVSSGGGGSGGGGSGGGGSGGGGSGGGGSGGGGSGGGGSEVQLVESGGGLVQAGGSLRLSCAASGITSKINDMGWYRQTPGNYREWVASITATGTTNYRDSVKGRFTISRDNAKSTVYLQMNSLKPEDTTVYYCNTFPPISNFWGQGTLVTVSSA,40,2e-11

# Target: T2, Cynomolgus …
# Assay: SPR ProteOn off-rate screen
# Remark: another data set of the same source
# Text: as §1
row,koff [s⁻¹],Binder
1,0.0109,T017000223 (VHH) VHH: EVQLVESGGGVVQPGGSLRLSCVASGDVHKINFLGWYRQAPGKEREKVAHISIGDQADYADSAKGRFTISRDESKNMVYLQMNSLRPEDTALYFCRAFSRIYPYDYWGQGTLVTVSS
2,0.00957,T017000238 (VHH) VHH: EVQLVESGGGVVQPGGSLRLSCVASGDVHKINFLGWYRQAPGKEREKVAHISIGDETDYADSAKGRFTISRDESKNMVYLQMNSLRPEDTALYFCRAFSRIYPYDYWGQGTLVTVSS
3,0.00895,T017000232 (VHH) VHH: EVQLVESGGGVVQPGGSLRLSCVASGDVHKINFLGWYRQAPGKEREKVAHISIGDQVDYADSAKGRFTISRDESKNMVYLQMNSLRPEDTALYFCRAFSRIYPYDYWGQGTLVTVSS
4,0.0102,T017000233 (VHH) VHH: EVQLVESGGGVVQPGGSLRLSCVASGDVHKINFLGWYRQAPGKEREKVAHISIGDQSDYADSAKGRFTISRDESKNMVYLQMNSLRPEDTALYFCRAFSRIYPYDYWGQGTLVTVSS
5,0.00936,T017000245 (VHH) VHH: EVQLVESGGGVVQPGGSLRLSCVASGDVHKINFLGWYRQAPGKEREKVAHISIADQTDYADSAKGRFTISRDESKNMVYLQMNSLRPEDTALYFCRAFSRIYPYDYWGQGTLVTVSS
6,0.00867,T017000231 (VHH) VHH: EVQLVESGGGVVQPGGSLRLSCVASGDVHKINFLGWYRQAPGKEREKVAVISIGDQTDYADSAKGRFTISRDESKNMVYLQMNSLRPEDTALYFCRAFSRIYPYDYWGQGTLVTVSS
7,0.0118,T017000234 (VHH) VHH: EVQLVESGGGVVQPGGSLRLSCVASGDVHKINFLGWYRQAPGKEREKVAMISIGDQTDYADSAKGRFTISRDESKNMVYLQMNSLRPEDTALYFCRAFSRIYPYDYWGQGTLVTVSS
8,0.011,T017000235 (VHH) VHH: EVQLVESGGGVVQPGGSLRLSCVASGDVHKINFLGWYRQAPGKEREKVAHISIGDHTDYADSAKGRFTISRDESKNMVYLQMNSLRPEDTALYFCRAFSRIYPYDYWGQGTLVTVSS
9,0.0167,T017000241 (VHH) VHH: EVQLVESGGGVVQPGGSLRLSCVASGDVHKINFLGWYRQAPGKEREKVAHISIGDQTNYADSAKGRFTISRDESKNMVYLQMNSLRPEDTALYFCRAFSRIYPYDYWGQGTLVTVSS
